# Test results: patent US20230227545A1 (published 2023)
# T1: cynomolgus IL-1β (cynomolgus macaque, UniProt P79182 117-268)
# T1 sequence (looked up): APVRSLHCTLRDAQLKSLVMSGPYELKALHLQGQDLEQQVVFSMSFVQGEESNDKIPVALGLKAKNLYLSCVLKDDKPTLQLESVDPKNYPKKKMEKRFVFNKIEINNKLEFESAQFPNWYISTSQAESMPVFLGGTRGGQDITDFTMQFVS
# T2: pig IL-1β (pig, UniProt P26889 115-267)
# T2 construct: also called pig IL-β
# T2 sequence (looked up): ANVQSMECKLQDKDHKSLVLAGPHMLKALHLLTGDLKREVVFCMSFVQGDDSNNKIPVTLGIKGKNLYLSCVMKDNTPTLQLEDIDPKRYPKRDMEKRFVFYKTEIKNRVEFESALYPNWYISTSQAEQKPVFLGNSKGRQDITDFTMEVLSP
# B1: 05H21A (antibody, human IgG1, lambda, V domains shown)
# VH: QVTLRESGPALVKPTQTLTLTCTFSGFSLSTSGMWVSWIRQPPGKALEWLALIDWGDDKYYTTSLKTRLTISKDTSKNQVVLTMTNMDPVDTATYYCARMREGSRAFDIWGQGTVVTVSS
# VL: QSVLTQPPSVSEAPRQRVTISCSGSSSNIGDNAVNWYQQLPGKAPKLLIYNDDLLSSGVSDRFSGSKSGTSASLAISGLQSEDEADYYCAAWDDSLNGPVFGGGTKLTVLG
# notes: Lambda light chain; also called 05H21A (anti-IL-1β) mAb [IgG1: YTE]
# How the values were obtained:
# human IL-1β [1] = molecular target: T3, human IL-1β (human, UniProt P01584 117-269); experiment: cell-based or functional assay
# human IL-1β [2] = molecular target: T3, human IL-1β; experiment: cell-based or functional assay; remark: listed apart in the source
# human IL-1β [3] = molecular target: T3, human IL-1β; experiment: cell-based or functional assay; remark: listed apart in the source
# cynomolgus IL-1β [4] = molecular target: T1, cynomolgus IL-1β; experiment: cell-based or functional assay
# pig IL-1β = molecular target: T2, pig IL-1β; experiment: SPR, Biacore 8K, mAb captured on anti-human Fc chip, soluble IL-1β as analyte
# Experimental: (§1) Affinity assessment of 05H21A, 15N14A, and 08F17A against human IL-1β was performed by Surface Plasmon Resonance (SPR) using a Biacore 8k. Cross-reactivity of the same antibody panel was also assessed against cyno, mouse, rat and pig IL-1β.
# (§2) SPR is a label-free technique to study the strength of an interaction between two binding partners by measuring the change in mass upon complex formation and dissociation. Briefly, antibodies were immobilized on a sensor chip which was coupled with goat anti-human Fc (GAH-Fc C1 sensor chip). Soluble IL-1β was flowed over the immobilized antibody and association/dissociation responses were monitored. Kinetic information (on-rate and off-rate constants) were extracted by fitting sensorgrams to the 1:1 Langmuir model. Binding affinity (KD) were reported as the ratio of rate constants (koff/kₒₙ).
# human IL-1β [5] = molecular target: T3, human IL-1β; experiment: SPR, Biacore 8K, mAb captured on goat anti-human Fc C1 chip, soluble IL-1β as analyte, 1:1 Langmuir fit
# Experimental: as §1, §2
# cynomolgus IL-1β [6] = molecular target: T1, cynomolgus IL-1β; experiment: as above
# Experimental: as §1, §2
binder,measurement,setting,value
B1,"IC30, inhibition of rhIL-1β-induced cytokine release, NHDF donor 29114",human IL-1β [1],0.039 nM
same,"IC30, inhibition of rhIL-1β-induced cytokine release, NHLF donor 34325",human IL-1β [1],0.071 nM
same,"IC30, inhibition of rhIL-1β-induced cytokine release, NHLF donor 35234",human IL-1β [1],0.042 nM
same,"IC50, inhibition of rhIL-1β-induced cytokine release, NHDF donor 29114",human IL-1β [1],0.078 nM
same,"IC50, inhibition of rhIL-1β-induced cytokine release, NHLF donor 34325",human IL-1β [1],0.167 nM
same,"IC50, inhibition of rhIL-1β-induced cytokine release, NHLF donor 35234",human IL-1β [1],0.098 nM
same,"IC90, inhibition of rhIL-1β-induced cytokine release, NHDF donor 29114",human IL-1β [1],0.49 nM
same,"IC90, inhibition of rhIL-1β-induced cytokine release, NHLF donor 34325",human IL-1β [1],1.51 nM
same,"IC90, inhibition of rhIL-1β-induced cytokine release, NHLF donor 35234",human IL-1β [1],0.89 nM
same,"IC30, inhibition of IL-6 release, human PBMCs (n=5 donors), 10 pM rhIL-1β",human IL-1β [2],43 pM
same,"IC30, inhibition of IL-6 release, human PBMCs (n=5 donors), 30 pM rhIL-1β",human IL-1β [2],0.104 nM
same,"IC50, inhibition of IL-6 release, human PBMCs (n=5 donors), 10 pM rhIL-1β",human IL-1β [2],70 pM
same,"IC50, inhibition of IL-6 release, human PBMCs (n=5 donors), 30 pM rhIL-1β",human IL-1β [2],0.164 nM
same,"IC90, inhibition of IL-6 release, human PBMCs (n=5 donors), 10 pM rhIL-1β",human IL-1β [2],0.244 nM
same,"IC90, inhibition of IL-6 release, human PBMCs (n=5 donors), 30 pM rhIL-1β",human IL-1β [2],0.533 nM
same,"IC30, inhibition of rhIL-1β-induced CXCL5 release, human whole blood (5 donors)",human IL-1β [3],0.4 nM
same,"IC30, inhibition of rhIL-1β-induced G-CSF release, human whole blood (5 donors)",human IL-1β [3],0.364 nM
same,"IC30, inhibition of rhIL-1β-induced IL-6 release, human whole blood (5 donors)",human IL-1β [3],0.393 nM
same,"IC50, inhibition of rhIL-1β-induced CXCL5 release, human whole blood (5 donors)",human IL-1β [3],0.622 nM
same,"IC50, inhibition of rhIL-1β-induced G-CSF release, human whole blood (5 donors)",human IL-1β [3],0.632 nM
same,"IC50, inhibition of rhIL-1β-induced IL-6 release, human whole blood (5 donors)",human IL-1β [3],0.631 nM
same,"IC90, inhibition of rhIL-1β-induced CXCL5 release, human whole blood (5 donors)",human IL-1β [3],1.95 nM
same,"IC90, inhibition of rhIL-1β-induced G-CSF release, human whole blood (5 donors)",human IL-1β [3],2.64 nM
same,"IC90, inhibition of rhIL-1β-induced IL-6 release, human whole blood (5 donors)",human IL-1β [3],2.16 nM
same,"IC30, inhibition of G-CSF release, cynomolgus lung fibroblasts (CLF), 15 pM rcynoIL-1β",cynomolgus IL-1β [4],0.195 nM
same,"IC30, inhibition of IL-6 release, cynomolgus dermal fibroblasts (CDF), 5 pM rcynoIL-1β",cynomolgus IL-1β [4],89 pM
same,"IC30, inhibition of IL-6 release, cynomolgus lung fibroblasts (CLF), 15 pM rcynoIL-1β",cynomolgus IL-1β [4],0.214 nM
same,"IC50, inhibition of G-CSF release, cynomolgus dermal fibroblasts (CDF), 5 pM rcynoIL-1β",cynomolgus IL-1β [4],59 pM
same,"IC50, inhibition of G-CSF release, cynomolgus lung fibroblasts (CLF), 15 pM rcynoIL-1β",cynomolgus IL-1β [4],0.27 nM
same,"IC50, inhibition of IL-6 release, cynomolgus dermal fibroblasts (CDF), 5 pM rcynoIL-1β",cynomolgus IL-1β [4],0.175 nM
same,"IC50, inhibition of IL-6 release, cynomolgus lung fibroblasts (CLF), 15 pM rcynoIL-1β",cynomolgus IL-1β [4],0.306 nM
same,"IC90, inhibition of G-CSF release, cynomolgus lung fibroblasts (CLF), 15 pM rcynoIL-1β",cynomolgus IL-1β [4],0.63 nM
same,"IC90, inhibition of IL-6 release, cynomolgus dermal fibroblasts (CDF), 5 pM rcynoIL-1β",cynomolgus IL-1β [4],0.997 nM
same,"IC90, inhibition of IL-6 release, cynomolgus lung fibroblasts (CLF), 15 pM rcynoIL-1β",cynomolgus IL-1β [4],0.779 nM
same,binding result,pig IL-1β,no binding
same,Kd,human IL-1β [5],0.0197 nM
same,koff,human IL-1β [5],0.000422 s⁻¹
same,kon,human IL-1β [5],2.14e+07 M⁻¹ s⁻¹
same,Kd,cynomolgus IL-1β [6],0.022 nM
same,koff,cynomolgus IL-1β [6],0.000348 s⁻¹
same,kon,cynomolgus IL-1β [6],1.58e+07 M⁻¹ s⁻¹
